Common to all, as to experiment: Kinase Profiling Assay
Holding throughout (assay type): biochemical
Holding throughout (conditions): 100 μM

Assay [1] has as its target T1, MSK1 (h) (Homo sapiens, UniProt O75582).
T1 construct: purchased Millipore
An outline of the steps:
(§1)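 In this 266-kinase specificity panel, every measurement was duplicated. Transfer of labeled phosphate from ATP to a cationic substrate was quantified after the substrate adhered to an anionic filter membrane and was scintillation-counted, then related to a full-activity control.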

Assay [2] addresses T2, NEK3 (h) (Homo sapiens, UniProt P51956).
T2 construct: purchased Millipore
T2 sequence (P51956 1-506): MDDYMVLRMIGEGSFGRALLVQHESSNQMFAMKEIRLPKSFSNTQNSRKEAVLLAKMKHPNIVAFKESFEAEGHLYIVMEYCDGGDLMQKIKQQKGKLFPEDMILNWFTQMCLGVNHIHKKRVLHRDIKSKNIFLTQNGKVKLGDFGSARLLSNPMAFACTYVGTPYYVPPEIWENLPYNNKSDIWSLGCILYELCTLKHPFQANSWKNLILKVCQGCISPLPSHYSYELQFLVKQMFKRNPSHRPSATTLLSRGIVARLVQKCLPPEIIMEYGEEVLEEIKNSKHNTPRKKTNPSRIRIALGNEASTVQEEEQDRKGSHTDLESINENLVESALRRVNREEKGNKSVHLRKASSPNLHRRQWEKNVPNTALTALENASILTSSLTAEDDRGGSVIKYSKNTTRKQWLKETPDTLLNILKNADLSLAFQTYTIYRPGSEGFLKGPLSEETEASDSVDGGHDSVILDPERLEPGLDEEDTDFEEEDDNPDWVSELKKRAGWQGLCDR
An outline of the steps:
as §1

Assay [3] deals with T3, TAK1 (h) (Homo sapiens, UniProt O43318).
T3 sequence (O43318 with tags, fused parts or gaps limits assumed): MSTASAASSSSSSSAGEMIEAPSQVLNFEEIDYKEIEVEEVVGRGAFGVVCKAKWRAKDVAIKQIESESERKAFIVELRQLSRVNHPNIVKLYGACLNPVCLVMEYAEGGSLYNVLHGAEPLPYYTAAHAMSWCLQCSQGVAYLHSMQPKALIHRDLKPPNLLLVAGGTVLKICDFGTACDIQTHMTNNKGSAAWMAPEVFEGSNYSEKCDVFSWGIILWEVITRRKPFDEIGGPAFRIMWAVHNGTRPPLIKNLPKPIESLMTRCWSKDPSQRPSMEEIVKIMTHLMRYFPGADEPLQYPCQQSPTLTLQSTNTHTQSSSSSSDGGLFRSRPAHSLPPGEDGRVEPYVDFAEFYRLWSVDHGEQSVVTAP
An outline of the steps: as §1

Assay [4] concerns the target T4, PKCε (h) (Homo sapiens, UniProt Q02156).
T4 construct: purchased Millipore
T4 sequence (Q02156 1-737): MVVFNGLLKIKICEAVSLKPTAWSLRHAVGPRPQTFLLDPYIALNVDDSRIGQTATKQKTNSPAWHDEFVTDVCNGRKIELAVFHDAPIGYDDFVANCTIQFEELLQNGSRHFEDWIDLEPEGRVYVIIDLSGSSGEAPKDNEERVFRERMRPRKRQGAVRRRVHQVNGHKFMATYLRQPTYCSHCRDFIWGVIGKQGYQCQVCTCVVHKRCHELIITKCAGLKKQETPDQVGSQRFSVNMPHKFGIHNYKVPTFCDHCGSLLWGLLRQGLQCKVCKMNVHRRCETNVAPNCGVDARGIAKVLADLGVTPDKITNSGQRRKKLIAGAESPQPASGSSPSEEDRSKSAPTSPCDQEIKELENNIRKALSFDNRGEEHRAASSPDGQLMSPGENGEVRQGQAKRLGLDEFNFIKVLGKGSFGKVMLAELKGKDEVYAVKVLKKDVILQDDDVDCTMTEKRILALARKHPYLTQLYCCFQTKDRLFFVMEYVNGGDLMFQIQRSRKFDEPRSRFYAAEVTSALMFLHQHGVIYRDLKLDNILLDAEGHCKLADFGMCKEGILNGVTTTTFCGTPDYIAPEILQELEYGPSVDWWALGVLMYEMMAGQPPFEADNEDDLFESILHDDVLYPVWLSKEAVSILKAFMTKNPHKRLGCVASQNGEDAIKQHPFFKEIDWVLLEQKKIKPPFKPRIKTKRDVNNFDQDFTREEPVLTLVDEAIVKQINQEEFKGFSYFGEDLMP
The gist of the method: as §1

Assay [5] deals with T5, PKD2 (h) (Homo sapiens, UniProt Q9BZL6).
T5 sequence (Q9BZL6 1-878): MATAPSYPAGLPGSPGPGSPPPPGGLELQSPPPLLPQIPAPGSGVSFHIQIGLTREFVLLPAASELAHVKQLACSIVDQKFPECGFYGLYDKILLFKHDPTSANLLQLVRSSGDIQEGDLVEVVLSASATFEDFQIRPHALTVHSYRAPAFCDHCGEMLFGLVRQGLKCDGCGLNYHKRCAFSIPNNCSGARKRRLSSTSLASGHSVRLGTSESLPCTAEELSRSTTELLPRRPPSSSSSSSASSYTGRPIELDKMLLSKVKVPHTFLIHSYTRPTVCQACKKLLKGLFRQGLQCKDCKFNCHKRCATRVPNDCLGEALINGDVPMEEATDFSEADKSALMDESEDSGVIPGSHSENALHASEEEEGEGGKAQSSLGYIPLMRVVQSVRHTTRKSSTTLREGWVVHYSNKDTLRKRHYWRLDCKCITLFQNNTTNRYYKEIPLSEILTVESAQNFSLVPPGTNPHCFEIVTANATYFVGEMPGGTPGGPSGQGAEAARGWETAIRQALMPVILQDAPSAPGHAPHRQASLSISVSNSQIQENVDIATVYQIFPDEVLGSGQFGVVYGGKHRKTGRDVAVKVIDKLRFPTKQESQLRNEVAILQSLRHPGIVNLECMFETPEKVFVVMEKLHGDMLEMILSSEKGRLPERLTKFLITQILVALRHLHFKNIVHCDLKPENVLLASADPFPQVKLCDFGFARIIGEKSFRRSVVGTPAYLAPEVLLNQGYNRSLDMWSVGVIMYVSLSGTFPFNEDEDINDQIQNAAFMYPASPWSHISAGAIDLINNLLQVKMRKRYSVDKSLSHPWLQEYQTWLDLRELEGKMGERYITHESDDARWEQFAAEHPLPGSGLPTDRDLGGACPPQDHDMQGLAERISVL
An outline of the steps:
as §1

Assay [6] deals with Abl (h) (Homo sapiens, UniProt P00519). An outline of the steps: as §1
Sequence of Abl (h) (P00519 whole entry): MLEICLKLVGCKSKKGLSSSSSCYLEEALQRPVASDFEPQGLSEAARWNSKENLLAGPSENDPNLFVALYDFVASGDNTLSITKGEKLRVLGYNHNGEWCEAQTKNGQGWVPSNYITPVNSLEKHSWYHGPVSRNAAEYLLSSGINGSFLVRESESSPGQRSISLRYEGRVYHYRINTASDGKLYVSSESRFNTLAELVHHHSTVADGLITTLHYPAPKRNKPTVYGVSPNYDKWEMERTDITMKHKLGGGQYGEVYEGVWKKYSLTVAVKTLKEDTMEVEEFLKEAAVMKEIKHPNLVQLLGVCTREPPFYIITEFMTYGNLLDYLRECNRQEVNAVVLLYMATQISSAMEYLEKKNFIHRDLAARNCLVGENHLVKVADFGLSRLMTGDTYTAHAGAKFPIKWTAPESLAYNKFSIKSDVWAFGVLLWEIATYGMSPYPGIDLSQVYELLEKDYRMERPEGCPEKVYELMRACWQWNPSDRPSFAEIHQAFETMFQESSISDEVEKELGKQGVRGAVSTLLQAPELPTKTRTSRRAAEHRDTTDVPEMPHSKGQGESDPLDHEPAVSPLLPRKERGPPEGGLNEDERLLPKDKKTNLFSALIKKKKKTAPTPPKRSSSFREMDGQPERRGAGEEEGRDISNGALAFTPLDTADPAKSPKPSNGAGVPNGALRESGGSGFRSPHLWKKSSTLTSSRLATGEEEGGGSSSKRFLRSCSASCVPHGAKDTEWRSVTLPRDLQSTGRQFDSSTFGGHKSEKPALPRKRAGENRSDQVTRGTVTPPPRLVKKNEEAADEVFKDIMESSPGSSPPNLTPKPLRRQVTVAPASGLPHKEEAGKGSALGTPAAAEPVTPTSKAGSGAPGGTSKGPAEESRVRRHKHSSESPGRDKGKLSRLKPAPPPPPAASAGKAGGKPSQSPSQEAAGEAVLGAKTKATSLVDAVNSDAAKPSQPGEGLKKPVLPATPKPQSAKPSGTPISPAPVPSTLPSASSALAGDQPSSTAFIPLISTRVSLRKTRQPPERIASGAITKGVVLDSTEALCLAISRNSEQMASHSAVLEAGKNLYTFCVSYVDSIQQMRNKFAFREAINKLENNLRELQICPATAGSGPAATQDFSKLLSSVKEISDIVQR
The target in assay [7] is PKCη (h) (Homo sapiens, UniProt P24723). An outline of the steps:
as §1

Sequence of PKCη (h) (P24723 whole entry): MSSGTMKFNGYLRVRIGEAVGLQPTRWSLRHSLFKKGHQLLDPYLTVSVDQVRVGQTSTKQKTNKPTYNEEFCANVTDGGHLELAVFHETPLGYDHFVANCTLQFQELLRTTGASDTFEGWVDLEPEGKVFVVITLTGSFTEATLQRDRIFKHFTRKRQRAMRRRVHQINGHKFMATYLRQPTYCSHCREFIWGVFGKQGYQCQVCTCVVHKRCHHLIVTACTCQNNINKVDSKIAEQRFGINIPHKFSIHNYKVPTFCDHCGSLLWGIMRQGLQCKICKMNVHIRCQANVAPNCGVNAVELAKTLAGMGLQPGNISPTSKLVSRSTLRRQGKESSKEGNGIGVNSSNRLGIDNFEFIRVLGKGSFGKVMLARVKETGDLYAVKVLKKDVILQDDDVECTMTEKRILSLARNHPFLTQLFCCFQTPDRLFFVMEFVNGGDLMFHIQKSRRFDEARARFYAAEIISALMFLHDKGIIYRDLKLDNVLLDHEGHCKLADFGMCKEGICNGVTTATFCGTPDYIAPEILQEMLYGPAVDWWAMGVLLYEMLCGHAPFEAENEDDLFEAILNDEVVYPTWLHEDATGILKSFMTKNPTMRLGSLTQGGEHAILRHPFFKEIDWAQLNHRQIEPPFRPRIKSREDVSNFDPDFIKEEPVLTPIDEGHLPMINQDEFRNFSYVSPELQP
T1 sequence (O75582 whole entry): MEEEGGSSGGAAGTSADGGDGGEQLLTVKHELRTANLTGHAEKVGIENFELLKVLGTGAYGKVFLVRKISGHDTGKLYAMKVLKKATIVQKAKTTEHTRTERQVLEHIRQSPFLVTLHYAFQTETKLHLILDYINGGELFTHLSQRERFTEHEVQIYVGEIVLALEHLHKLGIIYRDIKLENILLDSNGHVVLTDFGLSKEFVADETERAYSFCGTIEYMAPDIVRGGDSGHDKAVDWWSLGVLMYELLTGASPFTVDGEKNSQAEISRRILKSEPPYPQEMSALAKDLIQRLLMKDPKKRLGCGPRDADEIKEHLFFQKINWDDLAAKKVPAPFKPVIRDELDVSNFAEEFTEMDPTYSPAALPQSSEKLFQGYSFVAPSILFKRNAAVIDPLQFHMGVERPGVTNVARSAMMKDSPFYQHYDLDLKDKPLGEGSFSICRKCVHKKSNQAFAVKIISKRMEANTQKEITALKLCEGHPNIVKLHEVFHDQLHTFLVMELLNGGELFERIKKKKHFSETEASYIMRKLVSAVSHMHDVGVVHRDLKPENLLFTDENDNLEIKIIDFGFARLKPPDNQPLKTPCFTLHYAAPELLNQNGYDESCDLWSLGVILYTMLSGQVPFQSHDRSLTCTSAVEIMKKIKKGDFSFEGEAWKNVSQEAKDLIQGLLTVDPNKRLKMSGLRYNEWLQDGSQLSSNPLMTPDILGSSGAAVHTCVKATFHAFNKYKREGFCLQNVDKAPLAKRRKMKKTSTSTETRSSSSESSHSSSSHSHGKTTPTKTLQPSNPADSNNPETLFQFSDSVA

Consider FAKLAARLYRKALARQLGVAA [MMI-0300], for which the “% activity” value in assay [1] is given as 32%; in assay [2] it was 92%; in assay [3], 122%; in assay [4], 79%; in assay [5] it was 33%; in assay [6] it was 69%.
Consider KAFAKLAARLYRKALARQLGVAA [MMI-0400], for which the “% activity” value amounted to 28% in assay [1]; 98% in assay [7]; 85% in assay [2]; 177% in assay [3]; 59% in assay [4]; 25% in assay [5]. The “% activity” value in assay [6] is recorded as 84%.
For “YARAAARQARAKALNRQLGVA (Mammalian) [MMI-0200]”, the “% activity” value in assay [1] came out at 50%; in assay [7], 101%; in assay [2], 100%; in assay [3], 124%; in assay [4] it was 98%; in assay [5] it was 78%.
In the case of “HRRIKAWLKKIKALARQLGVAA (Mammalian) [MMI-0500]”, the “% activity” value in assay [1] is recorded as 8%; in assay [7], 45%; in assay [2], 20%; in assay [4] it was 23%; in assay [5] it was 10%; in assay [6], 16%.

Source of the values: patent US10500249B2, “Compositions and methods for preventing or treating diseases, conditions, or processes characterized by aberrant fibroblast proliferation and extracellular matrix deposition” (MOERAE MATRIX, INC., priority 2014, dated 2019).
